From patent US20180186871A1
Like-named read-outs stand apart in the source and are kept apart here.

Legend:
Experiment in all cases: cell-based or functional assay
murine IL-11 (mouse) [1] = biological target: T1, murine IL-11 (mouse) (UniProt P47873)
T1 sequence (looked up): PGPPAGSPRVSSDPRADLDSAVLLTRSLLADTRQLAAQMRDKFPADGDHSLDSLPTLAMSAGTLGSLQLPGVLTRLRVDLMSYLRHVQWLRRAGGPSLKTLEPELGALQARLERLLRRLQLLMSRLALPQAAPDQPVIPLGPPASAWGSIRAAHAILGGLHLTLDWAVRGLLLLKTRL

human IL-11 (human) = human IL-11 (human) (UniProt P20809)
[2] = biological target: IL-11:IL-11Rα fusion protein
Sequence of IL-11:IL-11Rα fusion protein (chain, as listed by the source limits assumed): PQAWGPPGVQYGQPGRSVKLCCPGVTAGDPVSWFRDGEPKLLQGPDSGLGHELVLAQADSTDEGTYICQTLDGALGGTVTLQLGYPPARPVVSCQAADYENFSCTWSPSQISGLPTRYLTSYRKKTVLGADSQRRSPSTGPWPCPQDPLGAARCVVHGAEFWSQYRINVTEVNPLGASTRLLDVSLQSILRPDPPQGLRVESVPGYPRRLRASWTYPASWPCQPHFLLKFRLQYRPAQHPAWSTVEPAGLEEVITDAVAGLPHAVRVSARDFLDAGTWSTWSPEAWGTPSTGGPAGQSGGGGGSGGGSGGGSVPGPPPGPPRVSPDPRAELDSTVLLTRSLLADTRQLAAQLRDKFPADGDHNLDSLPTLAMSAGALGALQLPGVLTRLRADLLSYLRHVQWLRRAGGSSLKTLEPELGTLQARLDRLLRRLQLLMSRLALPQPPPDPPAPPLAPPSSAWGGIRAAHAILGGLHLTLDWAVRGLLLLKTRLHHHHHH

murine IL-11 (mouse) [3] = biological target: T1, murine IL-11 (mouse); remark: listed apart in the source

In the case of “Monoclonal Mouse IgG2A anti-human IL-11 antibody, Clone #22626, Catalog No. MAB218 (R&D Systems)”, the percentage of αSMA-positive (activated) fibroblasts, mouse atrial fibroblasts + TGFβ1 (murine IL-11 (mouse) [1]) is reported as 39.4%, the percentage of αSMA-positive (activated) fibroblasts, mouse atrial fibroblasts + TGFβ1, normalised to unstimulated (=1) (fold of unstimulated) (murine IL-11 (mouse) [1]) is reported as 1.24 and the percentage of αSMA-positive (activated) fibroblasts, human atrial fibroblasts + TGFβ1 (human IL-11 (human)) is reported as 28.3%. For the same substance, the percentage of αSMA-positive (activated) fibroblasts, human atrial fibroblasts + TGFβ1, normalised to unstimulated (=1) (fold of unstimulated) (human IL-11 (human)) was 0.99, the percentage of αSMA-positive (activated) fibroblasts, human atrial fibroblasts + TGFβ1, relative to unstimulated (human IL-11 (human)) was 0.89 times and the percentage of αSMA-positive (activated) fibroblasts, human atrial fibroblasts + hyper IL-11 (0.2 ng/ml) [2] was 33.8%. For the same substance, the percentage of αSMA-positive (activated) fibroblasts, human atrial fibroblasts + hyper IL-11 (0.2 ng/ml), normalised to unstimulated (=1) (fold of unstimulated) [2] was 1.28, the percentage of αSMA-positive (activated) fibroblasts, mouse atrial fibroblasts + TGFβ1 (murine IL-11 (mouse) [3]) was 43% and the percentage of αSMA-positive (activated) fibroblasts, mouse atrial fibroblasts + TGFβ1, normalised to unstimulated (=1) (fold of unstimulated) (murine IL-11 (mouse) [3]) was 1.44.
